Data as given in IntAct's records for PubMed 19624469.

B1: Protein phosphatase 2C 16 (Arabidopsis thaliana (Mouse-ear cress)), Q9CAJ0 (parent)
chain: MEEMTPAVAMTLSLAANTMCESSPVEITQLKNVTDAADLLSDSENQSFCNGGTECTMEDVSELEEVGEQDLLKTLSDTRSGSSNVFDEDDVLSVVEDNSAVISEGLLVVDAGSELSLSNTAMEIDNGRVLATAIIVGESSIEQVPTAEVLIAGVNQDTNTSEVVIRLPDENSNHLVKGRSVYELDCIPLWGTVSIQGNRSEMEDAFAVSPHFLKLPIKMLMGDHEGMSPSLTHLTGHFFGVYDGHGGHKVADYCRDRLHFALAEEIERIKDELCKRNTGEGRQVQWDKVFTSCFLTVDGEIEGKIGRAVVGSSDKVLEAVASETVGSTAVVALVCSSHIVVSNCGDSRAVLFRGKEAMPLSVDHKPDREDEYARIENAGGKVIQWQGARVFGVLAMSRSIGDRYLKPYVIPEPEVTFMPRSREDECLILASDGLWDVMNNQEVCEIARRRILMWHKKNGAPPLAERGKGIDPACQAAADYLSMLALQKGSKDNISIIVIDLKAQRKFKTRT
partner: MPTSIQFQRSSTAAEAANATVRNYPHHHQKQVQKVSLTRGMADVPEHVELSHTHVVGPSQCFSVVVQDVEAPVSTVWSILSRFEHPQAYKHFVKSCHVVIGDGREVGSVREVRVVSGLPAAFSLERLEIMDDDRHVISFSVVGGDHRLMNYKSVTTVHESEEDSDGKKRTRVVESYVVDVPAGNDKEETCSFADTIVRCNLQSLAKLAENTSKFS
B2: Protein phosphatase 2C 16 (Arabidopsis thaliana (Mouse-ear cress)), Q9CAJ0 (parent)
chain: B1 chain
partner: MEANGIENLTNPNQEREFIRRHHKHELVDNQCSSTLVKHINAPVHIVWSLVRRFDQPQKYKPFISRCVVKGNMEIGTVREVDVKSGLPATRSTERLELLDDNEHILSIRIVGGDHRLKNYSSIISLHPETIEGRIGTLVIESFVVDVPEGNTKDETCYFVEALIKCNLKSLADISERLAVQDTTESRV
B3: Protein phosphatase 2C 16 (Arabidopsis thaliana (Mouse-ear cress)), Q9CAJ0 (parent)
chain: B1 chain
partner: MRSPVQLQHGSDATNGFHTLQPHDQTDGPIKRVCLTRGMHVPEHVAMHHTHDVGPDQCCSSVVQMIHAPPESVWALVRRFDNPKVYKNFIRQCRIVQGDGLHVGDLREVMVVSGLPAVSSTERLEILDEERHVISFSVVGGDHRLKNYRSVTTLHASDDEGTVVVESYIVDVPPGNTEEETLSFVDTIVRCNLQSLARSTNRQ
B4: Protein phosphatase 2C 16 (Arabidopsis thaliana (Mouse-ear cress)), Q9CAJ0 (parent)
chain: B1 chain
B5: Protein phosphatase 2C 16 (Arabidopsis thaliana (Mouse-ear cress)), Q9CAJ0 (parent)
chain: B1 chain
partner: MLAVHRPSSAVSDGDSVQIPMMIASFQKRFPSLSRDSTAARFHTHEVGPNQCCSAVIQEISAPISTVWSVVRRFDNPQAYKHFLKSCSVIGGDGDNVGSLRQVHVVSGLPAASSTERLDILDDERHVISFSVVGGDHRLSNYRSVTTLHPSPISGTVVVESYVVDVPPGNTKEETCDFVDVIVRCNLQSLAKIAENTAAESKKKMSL

Variants of: B1
Conditions: with pyl6_arath PYL6, Q8S8E3

| Variant | effect of a mutation on the interaction |
| --- | --- |
| G246D | disrupting interaction |

Variants of: B2
Conditions: with pyl8_arath PYL8, Q9FGM1

| Variant | effect of a mutation on the interaction |
| --- | --- |
| G246D | disrupting interaction |

Variants of: B3
Conditions: with pyl5_arath PYL5, Q9FLB1

| Variant | effect of a mutation on the interaction |
| --- | --- |
| G246D | disrupting interaction |

Variants of: B4
Conditions: with pyr1_arath PYR1, O49686

| Variant | effect of a mutation on the interaction |
| --- | --- |
| G246D | disrupting interaction |

Variants of: B5
Conditions: with pyl4_arath PYL4, O80920

| Variant | effect of a mutation on the interaction |
| --- | --- |
| G246D | disrupting interaction |
